Laboratory results taken from patent publication US7514233.

Molecular target: Recombinant HIV-1 integrase from pRP1012 with the His6 tag removed by thrombin (HIV-1) (UniProt P04585)
Test: cell-based or functional assay

In the case of “His6-tagged Inip76/LEDGF expressed in E. coli from pCP6H75 (pRSETB) (from UniProt O75475 2-530)”, the IN protein remaining soluble after 45 minutes incubation at 4° C. and centrifugation at 20000 g was 50%.
